In paper PMC3072985:

Biological target: Mycobacterium tuberculosis Bacterioferritin B (BfrB), full length (Mycobacterium tuberculosis H37Rv) (UniProt P9WNE5)
Experiment: crystal structure; recombinant BfrB, 11 mg/ml, 20% PEG 3350, 0.1 M Tris pH 8.5, 293 K; 3.0 Å; 24 subunits in the asymmetric unit

Mycobacterium tuberculosis Bacterioferritin B (BfrB), full length (from UniProt P9WNE5 1-181) (natural protein)
stoichiometry N: 24
